Test results published in publication PMC10197057 (Microbial Cell Factories, 2023).

Target: T1, lysozyme from chicken egg white (Gallus gallus, UniProt P00698)
T1 construct: lysozyme from chicken egg white (Sigma-Aldrich L4919); source: bought: Sigma-Aldrich (L4919)
Experiment: BLI; BLItz system; nanobody (100 mg/L) loaded via His-tag on Anti-Penta-HIS (HIS1K) sensor; dilution series of antigen in solution; association 180 s, dissociation 300 s; sensor hydrated in PBS-T (0.1% Tween-20); reference without antigen; global fitting
Conditions: both partners purified

T1 sequence (P00698 19-147): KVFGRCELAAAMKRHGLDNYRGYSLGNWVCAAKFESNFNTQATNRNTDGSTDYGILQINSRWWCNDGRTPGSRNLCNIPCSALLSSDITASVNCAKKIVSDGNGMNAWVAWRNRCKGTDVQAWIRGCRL

B1: monovalent antilysozyme nanobody 1ZVH (VHH)
VHH: DVQLVESGGGSVQAGGSLRLSCAASGYIASINYLGWFRQAPGKEREGVAAVSPAGGTPYYADSVKGRFTVSLDNAENTVYLQMNSLKPEDTALYYCAAARQGWYIPLNSYGYNYWGQGTQVTVSS
notes: anti-lysozyme camelid VHH; also called anti-lysozyme VHH; not shown: CBH2 secretory signal, CBD-carrier polypeptide and KEX2 linker (RDKR), N-terminal, cleaved; His6, C-terminal, kept
- Kd: 1.5 nM
